PMC7320144 (Nature Communications, 2020)

What was measured:
[1] = test system: O=[N+]([O-])c1ccc(OP(=O)(O)O)cc1; test: purified protein; type: biochemical, Plasmodium falciparum; details: Mg2+; 25.0 °C
[2] = target: T1, PfISN1 (IMP-specific nucleotidase 1) (Plasmodium falciparum, UniProt A0A144A134); test: crystal structure; enzyme activation at pH […]; type: biochemical
T1 construct: gene ISN1; wild-type, full-length

[3] = target: PfISN1 D172N (full-length inactive mutant) (Plasmodium falciparum); test: crystal structure
[4] = target: PfISN1 D172N-ΔN30 (Plasmodium falciparum); test: crystal structure
[5] = target: the molecule itself; test: crystal structure; vapour diffusion in sitting drops at 292 K; protein 13 mg/mL in 50 mM Tris-HCl pH 8.0, 100 mM NaCl (or 50 mM MES pH 5.0, 100 mM NaCl); apo, ATP-bound or IMP-Mg2+-bound forms; homo-tetramer

Which results are given for “PfISN1 (IMP-specific nucleotidase 1) (Plasmodium falciparum 3D7; D172N)”?
Km [1]: 1510 ± 150 µM; kcat [1]: 0.28 ± 0.01 s⁻¹; kcat/Km [1]: 190 ± 20 M⁻¹ s⁻¹

Which EC50 [2] does the source give for `Nc1ncnc2c1ncn2[C@@H]1O[C@H](COP(=O)(O)OP(=O)(O)OP(=O)(O)O)[C@@H](O)[C@H]1O` [ATP] here?
The EC50 was 3.8 ± 0.7 mM.

Which stoichiometry N [3] does the source give for “PfISN1 D172N (full-length inactive mutant) (from UniProt A0A144A134 1-444) (enzyme)” here?
Its stoichiometry N is 4.

“PfISN1 D172N-ΔN30 (from UniProt A0A144A134 31-444) (domain or fragment)” was tested. Which stoichiometry N [4] did it give?
The stoichiometry N was 4.

B1: Plasmodium falciparum IMP-specific nucleotidase 1 (PfISN1), wild type (enzyme, UniProt A0A144A134 1-444, looked up)
chain: MKNLDINTFDNIEDIPLGSSEQDPYDFFTLSDRNVMNSDMKKNIVQWNSRYSYNQLKNKDSLIMFLVEIFRSLFVSNCIDKNIDNVLLSIEEMFIDHYYNPQHSRLKYLIDDVGIFFTKLPITKAFHTYNKKYRITKRLYAPPTFNEVRHILNLAQILSLEEGLDLLTFDADETLYPDGHDFNDEVLASYISCLLKKMNIAIVTAASYNNDAEKYQKRLENLLKYFSKHNIKDGSYKNFYVMGGESNYLFKCNEEATLYSVPENEWRHYKKFVDYDTVQEILNISEKCLEKVIKDFGLCAQIQRKEKSIGLVPNKIPSLNIKNEQKNYMIKYEVLEEAVIRIKKEIIKNKITAPYCAFNGGQDLWVDVGNKAEGLLILQKLLKIQKKKCCHIGDQFLHSGNDFPTRFCSLTLWVSNPQETKACLKSIMHLNIKSFIPEVLYENQ
notes: IMP-specific 5'-nucleotidase 1 (ISN1, EC 3.1.3.99) of Plasmodium falciparum, 444 amino acids, gene PF3D7_1206100; domains M1-K59 (NTRD), D60-T143 (OD), F144-K270 and K371-Q444 (CD), K271-N370 (cap); Cloned into pET-21bN; details of constructs and of purification for structural studies are in Supplementary Methods; A selenomethionine derivative (E. coli B834 (DE3)) was used for phasing; also …
For B1, which “stoichiometry N” value [5] is on record?
The value was 4.

B2: PfISN1-ΔC10 (domain or fragment, Plasmodium falciparum, UniProt A0A144A134 1-434, looked up)
chain: MKNLDINTFDNIEDIPLGSSEQDPYDFFTLSDRNVMNSDMKKNIVQWNSRYSYNQLKNKDSLIMFLVEIFRSLFVSNCIDKNIDNVLLSIEEMFIDHYYNPQHSRLKYLIDDVGIFFTKLPITKAFHTYNKKYRITKRLYAPPTFNEVRHILNLAQILSLEEGLDLLTFDADETLYPDGHDFNDEVLASYISCLLKKMNIAIVTAASYNNDAEKYQKRLENLLKYFSKHNIKDGSYKNFYVMGGESNYLFKCNEEATLYSVPENEWRHYKKFVDYDTVQEILNISEKCLEKVIKDFGLCAQIQRKEKSIGLVPNKIPSLNIKNEQKNYMIKYEVLEEAVIRIKKEIIKNKITAPYCAFNGGQDLWVDVGNKAEGLLILQKLLKIQKKKCCHIGDQFLHSGNDFPTRFCSLTLWVSNPQETKACLKSIMHLNIKS
notes: PfISN1 (444 amino acids, gene PF3D7_1206100) truncated by ten residues at the C-terminus; Construct details are in Supplementary Methods; also called ∆C10-truncated PfISN1; source: E. coli BL21-CodonPlus (DE3)-RIL (structural studies), purified
B2 was tested. Which “stoichiometry N” value [5] did it give?
Its value is 4.

B3: PfISN1-ΔN59 (domain or fragment, Plasmodium falciparum, UniProt A0A144A134 60-444, looked up)
chain: DSLIMFLVEIFRSLFVSNCIDKNIDNVLLSIEEMFIDHYYNPQHSRLKYLIDDVGIFFTKLPITKAFHTYNKKYRITKRLYAPPTFNEVRHILNLAQILSLEEGLDLLTFDADETLYPDGHDFNDEVLASYISCLLKKMNIAIVTAASYNNDAEKYQKRLENLLKYFSKHNIKDGSYKNFYVMGGESNYLFKCNEEATLYSVPENEWRHYKKFVDYDTVQEILNISEKCLEKVIKDFGLCAQIQRKEKSIGLVPNKIPSLNIKNEQKNYMIKYEVLEEAVIRIKKEIIKNKITAPYCAFNGGQDLWVDVGNKAEGLLILQKLLKIQKKKCCHIGDQFLHSGNDFPTRFCSLTLWVSNPQETKACLKSIMHLNIKSFIPEVLYENQ
notes: PfISN1 (444 amino acids, gene PF3D7_1206100) with the N-terminal regulatory domain (NTRD, M1 to K59) deleted; limits worked out from the name ΔN59 and the printed domain limits; Co-crystallized with IMP, IMP not observed in the structure; Construct details are in Supplementary Methods; also called ∆N59-truncated PfISN1; source: E. coli BL21-CodonPlus (DE3)-RIL (structural studies), purified
How did the “stoichiometry N” value [5] turn out when B3 was run?
The value was 4.
